This passage reports Kd results from article PMC6638009.

pKd: −log10 of the molar value.

As usually defined, the pKd is the Kd on a negative log10 scale, so that one unit is a factor of ten.

Assay [1] deals with His-tagged OsTFIIAγ1, labelled with NT-647 (rice (Oryza sativa)). Put plainly: MST; […]; 50 mM Tris-HCl pH 7.8, 150 mM NaCl, 10 mM MgCl2, 0.05% Tween-20; 25°C; […].
Assay [2] has as its target His-tagged Xa5 (OsTFIIAγ5), labelled with NT-647 (rice (Oryza sativa)) (UniProt A2XZI2). The description is as above.

In assay [1], “His-tagged AvrXa27 (from UniProt A0A0K0GNW2 1-1136) (natural protein)” gave a pKd greater than 6.00. In the case of His-tagged AvrXa7 (natural protein), the pKd in assay [1] and in assay [2] was greater than 6.00 in each case. Substance “His-tagged PthXo1 (from UniProt B2SU53 1-1373) (natural protein)” had a pKd in assay [1] greater than 6.00.
